Experimental data taken from US8084228B2, “Nogo-B receptor antagonists” (Yale University, priority 2006, dated 2011).
Entries after “also recorded” stand apart in the source; their conditions may differ. d = 2'-deoxy (DNA)

B1: AP-Am-Nogo-B: purified alkaline phosphatase (AP) fusion protein with residues 1-200 at the amino terminus of Nogo-B (protein)
chain: MEDLDQSPLVSSSDSPPRPQPAFKYQFVREPEDEEEEEEEEEEDEDEDLEELEVLERKPAAGLSAAPVPTAPAAGAPLMDFGNDFVPPAPRGPLPAAPPVAPERQPSWDPSPVSSTVPAPSPLSAAAVSPSKLPEDDEPPARPPPPPPASVSPQAEPVWTPPAPAPAAPPSTPAAPKRRGSSGSVVVDLLYWRDIKKTGV
modifications: left off: small tags and cut ends; large carriers
notes: purified alkaline phosphatase (AP) fusion protein with residues 1-200 at the amino terminus of Nogo-B
B2: alkaline phosphatase (protein, UniProt P05187 23-506, looked up)
Alkaline phosphatase, …: IIPVEEENPDFWNREAAEALGAAKKLQPAQTAAKNLIIFLGDGMGVSTVTAARILKGQKKDKLGPEIPLAMDRFPYVALSKTYNVDKHVPDSGATATAYLCGVKGNFQTIGLSAAARFNQCNTTRGNEVISVMNRAKKAGKSVGVVTTTRVQHASPAGTYAHTVNRNWYSDADVPASARQEGCQDIATQLISNMDIDVILGGGRKYMFRMGTPDPEYPDDYSQGGTRLDGKNLVQEWLAKRQGARYVWNRTELMQASLDPSVTHLMGLFEPGDMKYEIHRDSTLDPSLMEMTEAALRLLSRNPRGFFLFVEGGRIDHGHHESRAYRALTETIMFDDAIERAGQLTSEEDTLSLVTADHSHVFSFGGYPLRGSSIFGLAPGKARDRKAYTVLLYGNGPGYVLKDGARPDVTESESGSPEYRQQSAVPLDEETHAGEDVAVFARGPQAHLVHGVQEQTFIAHVMAFAACLEPYTACDLAPPAGTTD
notes: purified recombinant alkaline phosphatase, control for AP fusion proteins
B3: AP-Nogo-66: AP fusion of Nogo-66, a 66 amino acid residue loop in the RHD (protein)
chain: RIYKGVIQAIQKSDEGHPFRAYLESEVAISEELVQKYSNSALGHVNCTIKELRRLFLVDDLVDSLK
modifications: left off: large carriers
notes: AP fusion of Nogo-66, a 66 amino acid residue loop in the RHD

Tests used:
[1] = tested on: NgBR protein; test: NgBR protein level after siRNA transfection of HUVEC; assay type: cell-based, human; details: 72 hours after transfection
Protocol: Single NgBR cDNA clones were isolated by sib selection and sequenced. A NgBR-HA was created in pIRESneo vector (BD, Palo Alto, Calif.), with the HA tag at the carboxy terminus. To access the physical interaction of NgBR with Am-Nogo-B, 50 μg of solubilized extracts of CHO cells expressing control vector (pIRESneo) or NgBR-HA was incubated with 25 μg of purified Am-Nogo-B or buffer for 2 hours at room temperature. The HA-tagged NgBR was immunoisolated with anti-HA immunobeads (Roche, Indianapolis, Ind.) and associated proteins analyzed by Western blotting. For the Western blots, expression of NgBR-HA was detected by using anti-HA (Roche) and NgBR (Imgenex), respectively, and beta-actin (Sigma) or Hsp90 (BD Biosciences-Pharmingen) was used to control for loading.
(§1) NgBR siRNA oligonucleotides (SEQ ID NOS:2-5) with 3′ dTdT overhangs were synthesized by Qiagen. Control siRNA in experiments refers to a nonsilencing (NS) siRNA (NS forward: UUCUCCGAACGUGUCACGU, SEQ ID NO:7; NS reverse: ACGUGACACGUUCGGAGAA, SEQ ID NO:8) designed and synthesized by Qiagen. HUVEC and CHO stable cell lines were transfected with siRNA by using Oligofectamine. Quantification of NgBR mRNA and protein, ligand binding assay, and migration assay were performed at 72 hours after transfection.

[2] = tested on: NgBR mRNA; test: NgBR mRNA by quantitative PCR after siRNA transfection of HUVEC; assay type: cell-based, human; details: 72 hours after transfection, normalized to 18S
Protocol: as §1
Total RNA from cells was isolated by using the RNeasy kit (Qiagen). Reverse transcription was then performed by using 100 ng of RNA and the Superscript First-Strand Synthesis System kit (Invitrogen). Real-time PCR analysis was done with the iCycler iQ detection system using the iQ SYBR green Supermix kit (Bio-Rad). The NgBR mRNA level was normalized by housekeeping gene 18S. The following primers were used for NgBR: forward, 5′-[…]-3′ (SEQ ID NO:9) and reverse, 5′-[…]-3′ (SEQ ID NO:10). The following primers were used for 18S: forward, 5′-[…]-3′ (SEQ ID NO:11) and reverse, 5′-[…]-3′ (SEQ ID NO:12).

[3] = tested on: HUVEC; test: AP-Am-Nogo-B binding to HUVEC after siRNA transfection; assay type: cell-based, human; details: 72 hours after siRNA transfection
Protocol: (§2) To detect AP-Am-Nogo-B binding, cultures were washed with Hanks' balanced salt solution (HBSS) containing 20 mM HEPES, pH 7.5, and 1 mg/mL BSA (HBH). The plates were then incubated with AP-Am-Nogo-B in DMEM containing 20 mM Hepes, pH 7.5, and 1 mg/mL BSA for 2 hours at 4° C. The bound AP-Am-Nogo-B was detected by using the Blue Substrate kit (Vector Laboratories). The blue staining was examined by using the ODYSSEY Infrared Imaging System (Li-Cor, Lincoln, Nebr.) and confirmed by microscopy. Alternatively, the bound AP-Am-Nogo-B was extracted with Triton X-100, and AP activity was colorimetrically quantified by using p-nitrophenyl phosphate (Sigma) as substrate after heat inactivation of endogenous AP. Non-specific binding was determined by measuring binding in the presence of a 100-fold molar excess of recombinant Am-Nogo-B lacking the AP fusion protein. Specific binding was determined by subtracting the non-specific binding from total binding. For determination of apparent Kd, the binding of AP-Am-Nogo-B was measured in triplicate as described above and the Kd value was quantified by using the Scatchard plot program of GraphPad PRISM (one-site binding, linear regression) using the ratio of bound ligand to free ligand as the y axis and bound ligand (pM) as the x axis.
as §1

[4] = tested on: HUVEC; test: Binding of AP fusion proteins to the surface of HUVEC; set-up: species or system human; details: HUVEC (FIGS. 12, 15)
Protocol: as §2

[5] = tested on: CHO cells; test: AP fusion protein binding to untransfected CHO cells
Protocol: as §2

[6] = biological target: T1, NgBR (Homo sapiens, UniProt Q96E22); test: AP fusion protein binding to CHO cells expressing NgBR; set-up: an isolated cDNA encoding NgBR is 2,636 base pairs encoding an open reading frame of 293 amino acids; expressed in transfected cells; details: for surface binding of AP fusion domains to NgBR-expressing cells: CHO cells expressing NgBR (FIGS. 11, 14); for binding to CHO cells stably expressing NgBR: increasing concentrations, 2 hours at 4° C.
T1 sequence (Q96E22 1-293): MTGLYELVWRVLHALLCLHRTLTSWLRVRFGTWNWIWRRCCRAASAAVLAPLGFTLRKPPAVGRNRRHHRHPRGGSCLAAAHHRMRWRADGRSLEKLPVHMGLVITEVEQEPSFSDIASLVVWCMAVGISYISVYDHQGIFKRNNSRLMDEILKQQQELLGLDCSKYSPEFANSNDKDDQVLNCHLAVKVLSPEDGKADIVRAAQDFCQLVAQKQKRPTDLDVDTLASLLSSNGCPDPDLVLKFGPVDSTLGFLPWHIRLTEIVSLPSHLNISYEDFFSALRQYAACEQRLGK
Protocol: as §2
A recombinant AP-Am-Nogo-B fusion protein was used to screen a cDNA expression library from human heart (500,000 independent clones) transfected into COS or CHO cells using Lipofectamine 2000 (Invitrogen). COS-7 cells were cultured in high-glucose DMEM with 10% FBS. CHO cells were cultured in MEM-α with 5% FBS.

[7] = biological target: T2, Nogo receptor (Homo sapiens, UniProt Q9BZR6); test: AP fusion protein binding to COS cells transfected with cDNA encoding the Nogo receptor; details: COS cells (FIG. 6)
T2 construct: expressed in transfected cells; host or cells: COS-7
T2 sequence (Q9BZR6 27-447): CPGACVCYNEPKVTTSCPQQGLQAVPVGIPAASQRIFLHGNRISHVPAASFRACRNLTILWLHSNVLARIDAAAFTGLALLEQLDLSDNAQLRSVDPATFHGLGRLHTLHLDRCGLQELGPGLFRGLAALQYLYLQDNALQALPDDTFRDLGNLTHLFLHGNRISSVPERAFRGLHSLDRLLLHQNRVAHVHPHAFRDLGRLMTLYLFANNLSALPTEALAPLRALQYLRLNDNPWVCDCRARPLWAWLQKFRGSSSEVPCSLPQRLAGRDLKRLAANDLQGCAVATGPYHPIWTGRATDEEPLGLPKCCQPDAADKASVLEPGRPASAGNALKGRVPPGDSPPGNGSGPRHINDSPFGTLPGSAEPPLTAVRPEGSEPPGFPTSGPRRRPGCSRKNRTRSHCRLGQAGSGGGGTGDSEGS
Protocol: as §2
(§3) For expression cloning of Am-Nogo-B receptor, pools of 5,000 arrayed clones from a human heart cDNA library (OriGene Technologies, Rockville, Md.) were transfected into COS-7 cells, and AP-Am-Nogo-B binding was assessed by using AP versus AP-Am-Nogo-B binding and detection of the AP product by near-infrared cell imaging (Li-Cor, Lincoln, Nebr.) or AP activity assays.

[8] = biological target: T1, NgBR; test: AP fusion protein binding to COS cells transfected with the isolated NgBR cDNA; set-up: an isolated cDNA encoding NgBR is 2,636 base pairs encoding an open reading frame of 293 amino acids; expressed in transfected cells; host or cells: COS-7 (A4); details: COS cells (FIG. 6)
Protocol: as §2, §3
Single NgBR cDNA clones were isolated by sib selection and sequenced. […] The HA-tagged NgBR was immunoisolated with anti-HA immunobeads (Roche, Indianapolis, Ind.) and associated proteins analyzed by Western blotting. For the Western blots, expression of NgBR-HA was detected by using anti-HA (Roche) and NgBR (Imgenex), respectively, and beta-actin (Sigma) or Hsp90 (BD Biosciences-Pharmingen) was used to control for loading.

[9] = tested on: HUVEC; test: HUVEC migration in modified Boyden chambers; assay type: cell-based, human; details: 10 nM purified recombinant protein, 5 hours
Protocol: The migratory response of human umbilical vein endothelial cells (HUVEC) in response to a gradient of recombinant, purified alkaline phosphatase (AP) fusion protein expressing Am-Nogo-B or a recombinant purified Am-Nogo-B was examined. HUVEC were cultured in M199 with 20% FBS and endothelial cell growth supplement (ECGS).
Cell migration was examined in modified Boyden chambers using 10 nM each of purified recombinant AP, AP fusion of Nogo-66 (AP-Nogo-66) or Am-Nogo-B. The transwell inserts (Costar transwell inserts; Corning) were coated with a solution of 0.1% gelatin (Sigma) in PBS at 4° C. overnight and then air-dried. VEGF at 50 ng/mL (1.1 nM) or recombinant Am-Nogo-B at various concentrations dissolved in medium 199 containing 0.1% BSA was added in the bottom chamber of the Boyden apparatus. HUVEC (200,000 cells) suspended in a 100 μL aliquot of medium 199 containing 0.1% BSA was added to the upper chamber. After 5 hours incubation, cells on both sides of the membrane were fixed and stained with a Diff-Quik staining kit (Baxter Healthcare, Miami, Fla.). The average number of cells from five randomly chosen high-power (×400) fields on the lower side of the membrane was counted.

| Molecule | NgBR protein level [1] | level of NgBR mRNA [2] | binding of AP-Am-Nogo-B to HUVEC [3] | surface binding of AP fusion domains to HUVEC [4] | binding to CHO cells [5] | surface binding of AP fusion domains to NgBR-expressing cells [6] | binding to CHO cells stably expressing NgBR [6] | binding to COS cells transfected with Nogo receptor cDNA [7] | binding to COS cells transfected with the isolated NgBR cDNA [8] | HUVEC migration [9] |
| --- | --- | --- | --- | --- | --- | --- | --- | --- | --- | --- |
| S1: siRNA targeting the coding region of NgBR mRNA; forward CCAGAAUUUGCAAAUAGUA, reverse UACUAUUUGCAAAUUCUGG (SEQ ID NO: 2, 3) (3' dTdT, sugars by position and backbone not given here) | down-regulates | downregulates | reduces |  |  |  |  |  |  |  |
| nonsilencing RNA: nonsilencing (NS) control siRNA by Qiagen; forward UUCUCCGAACGUGUCACGU (SEQ ID NO:7) (antisense ACGUGACACGUUCGGAGAA; listed as RNA, chemistry not given here) [reference compound] |  | not | not |  |  |  |  |  |  |  |
| B1 |  |  |  | did | minimal binding | did | permits the binding; also recorded: permitted binding | do not bind |  |  |
| B2 |  |  |  | did not bind | minimal binding | did not bind | not | do not bind | not | does not promote |
| B3 |  |  |  | did not bind |  | did not bind | not | selectively bind | not | does not promote |
